Data: US20190077858A1 (KM BIOLOGICS, published 2019)

Experiments:
[1] = biological target: T1, human IL-18 (MBL Medical & Biological Laboratories, Co., Ltd.) (human, UniProt Q14116 37-193, biotinylated (Biotin-PEAC5-maleimide or Biotin-AC5 Sulfo-OSu) in the streptavidin plate ELISAs and the panning; not labelled in the receptor binding and KG-1 assays); assay: blocking ELISA: human IL-18 with IL-18Rα-hFc-His and the antibody added to plate-bound IL-18Rβ-hFc, anti-His tag/HRP; blocked partner: IL-18 receptor
T1 construct: Bought protein; also called human interleukin-18; biotinylated human IL-18
T1 sequence (looked up): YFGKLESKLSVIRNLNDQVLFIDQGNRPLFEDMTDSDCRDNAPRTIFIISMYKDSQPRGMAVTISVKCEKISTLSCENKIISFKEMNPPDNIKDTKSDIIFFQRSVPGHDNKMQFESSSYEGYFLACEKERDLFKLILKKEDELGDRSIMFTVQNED
Description: IL-18Rβ-hFc (R&D Systems, Inc.) was added at 100 μL/well at a concentration of 1 μg/mL to Covalink plates (Nunc) and incubated at room temperature for 1 hour and then incubated overnight at 4° C. On the next day, the plates were washed with PBS (phosphate buffered saline) and blocked with 1% BSA (bovine serum albumin)-PBS. Human IL-18 (MBL Medical & Biological Laboratories, Co., Ltd.) was prepared at a concentration of 0.5 μg/mL with 1% BSA-PBS, and IL-18Rα-hFc-His (R&D Systems, Inc.) was prepared at a concentration of 2 μg/mL with 1% BSA-PBS. Both of the solutions were mixed (50 μL each). The obtained anti-IL-18 antibody was further added to the IL-18/IL-18Rα-hFc-His mixed solution. This mixed solution was added to the IL-18Rβ-hFc-immobilized Covalink plates and incubated at 37° C. for 1 hour. After 1 hour, the plates were washed with PBST (phosphate buffered saline-Tween 20), and a detection antibody anti-His tag/HRP (Bethyl Laboratories, Inc.) was added at 100 μL/well to the plates and incubated at 37° C. After 1 hour, the plates were washed with PBST, and TMB (Sigma-Aldrich Corp.) was added at 100 μL/well to the plates to develop color. After 30 minutes, the reaction was terminated with 2 N sulfuric acid, and the color values (O.D. 450 nm/650 nm) were measured using a microplate reader (Molecular Devices, Inc.).

[2] = biological target: T2, K53A variant of human IL-18 (human, UniProt Q14116 37-193, K53A, biotinylated); assay: ELISA on immobilised biotinylated K53A IL-18, antibody at 1 µg/mL
T2 construct: On the precursor entry the residue at 53 may not be K; the numbering is likely that of mature IL-18
T2 sequence (looked up): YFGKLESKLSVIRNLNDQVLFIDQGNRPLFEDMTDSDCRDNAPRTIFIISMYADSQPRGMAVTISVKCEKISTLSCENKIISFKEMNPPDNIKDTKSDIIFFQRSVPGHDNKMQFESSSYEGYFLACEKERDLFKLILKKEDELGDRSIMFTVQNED
Description: Next, these human IL-18 proteins were biotinylated, then each diluted to 1 μg/mL with PBS (Sigma-Aldrich Corp.), added at 100 μL/well to Streptavidin plates (Nunc), and incubated at room temperature for 2 hours to immobilize them. After the immobilization, the plates were washed with PBST, and human IL-18BPa-hFc (R&D Systems, Inc.) or the IgG molecule-type 4A6D was prepared at 1 μg/mL with 1% BSA-PBS, added at 100 μL/well to the plates, and incubated at 37° C. After 1 hour, the plates were washed with PBST, and a detection antibody anti-hFc/HRP (Cosmo Bio Co., Ltd., The binding site) was added at 100 μL/well to the plates and incubated at 37° C. After 1 hour, the plates were washed with PBST, and TMB (Sigma-Aldrich Corp.) was added at 100 μL/well to the plates to develop color. After 30 minutes, the reaction was terminated with 1 M sulfuric acid, and the color values (O.D. 450 nm/650 nm) were measured using a microplate reader (Molecular Devices, Inc.).

[3] = biological target: T1, human IL-18 (MBL Medical & Biological …); assay: cell-based or functional assay
[4] = biological target: T3, human IL-33 (MBL Medical & Biological Laboratories, Co., Ltd.) (human, UniProt O95760 112-270, limits assumed, biotinylated (Biotin-PEAC5-maleimide or Biotin-AC5 Sulfo-OSu)); assay: ELISA on biotinylated cytokine on streptavidin plates
T3 construct: also called biotinylated human IL-33
T3 sequence (looked up): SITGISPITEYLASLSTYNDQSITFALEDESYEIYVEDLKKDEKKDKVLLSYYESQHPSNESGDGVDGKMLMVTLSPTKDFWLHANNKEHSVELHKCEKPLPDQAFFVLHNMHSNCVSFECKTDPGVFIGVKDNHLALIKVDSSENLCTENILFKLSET

[5] = biological target: T4, mouse IL-18 (MBL Medical & Biological Laboratories, Co., Ltd.) (mouse, UniProt P70380 36-192, biotinylated (Biotin-PEAC5-maleimide or Biotin-AC5 Sulfo-OSu)); assay: as above
T4 construct: also called biotinylated mouse IL-18
T4 sequence (looked up): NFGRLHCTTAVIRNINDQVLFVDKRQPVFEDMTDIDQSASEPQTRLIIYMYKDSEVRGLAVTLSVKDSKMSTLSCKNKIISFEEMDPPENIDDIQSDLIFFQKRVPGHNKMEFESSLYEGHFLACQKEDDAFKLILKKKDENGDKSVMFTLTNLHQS

[6] = biological target: T5, human IL-1β (Funakoshi Corp.) (human, UniProt P01584 117-269, biotinylated (Biotin-PEAC5-maleimide or Biotin-AC5 Sulfo-OSu)); assay: as above
T5 construct: also called biotinylated human IL-1β

[7] = biological target: T6, rat IL-18 (Acris Antibodies GmbH) (rat, UniProt P97636 37-194, limits assumed, biotinylated (Biotin-PEAC5-maleimide or Biotin-AC5 Sulfo-OSu)); assay: as above
T6 construct: also called biotinylated rat IL-18
T6 sequence (looked up): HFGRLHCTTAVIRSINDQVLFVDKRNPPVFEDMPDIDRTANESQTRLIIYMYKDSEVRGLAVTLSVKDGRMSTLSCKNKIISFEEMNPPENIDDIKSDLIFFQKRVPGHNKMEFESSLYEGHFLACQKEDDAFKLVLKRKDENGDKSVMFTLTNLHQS

- IC50 (read off the curve) [1]: ~0.3 µg/mL
- binding result [2]: binds
- Neutralizing ability (IC50, nM) [3]: 0.007 nM
- binding result [4]: no binding
- binding result [5]: no binding
- binding result [6]: no binding
- binding result [7]: no binding
B1: IgG molecule-type 4A6D (antibody, V domains shown)
VH: EVQLVESGGGLVQPGGSMRLSCTASGFTFDEYAMSWVRQAPGKGLEWVSGISTGGGGTYYADSVEGRFTISRDNSKNTLYLQMNSLRAEDTAVYYCAKPWLSGSRSGDFWGQGTLVTVSS
VL: QSALTQPASVSGSPGQSITISCTGTSSDVGGYNYVSWYQQHPGKAPKLLIYEVSHRPSGVSDRFSGSKSGNTASLTISGLQAEDEADYYCSSFTSSSSLYVFGTGTKLTVL
notes: detected with anti-hFc, so human constant regions; also called human anti-human IL-18 antibody 4A6D
